Patent US20220243213A1, “ANTI-CRISPR INHIBITORS” (THE REGENTS OF THE UNIVERSITY OF CALIFORNIA, published 2022)
Residue numbers refer to the chain shown, from its start.

How the values were obtained:
[1] = tested on: AcrIIA1 NTD (Listeria phage A006); experiment: MST
[2] = tested on: AcrIIA1 (phage A006) (Listeria phage A006); experiment: MST; conditions: 34 nM stated in Example 5 (p151)
[3] = target: Listeria monocytogenes Cas9 (LmoCas9) (Listeria monocytogenes); experiment: cell-based or functional assay
Aca2 ZF40 = target: T1, Aca2 ZF40 (Pectobacterium phage ZF40, UniProt H9C180 H9C180:1-116); experiment: cell_activity; lacZ reporter in E. coli; text listing of SEQ 6 differs from the Table 8 sequence for this accession; conditions: chain copies: 2
T1 sequence: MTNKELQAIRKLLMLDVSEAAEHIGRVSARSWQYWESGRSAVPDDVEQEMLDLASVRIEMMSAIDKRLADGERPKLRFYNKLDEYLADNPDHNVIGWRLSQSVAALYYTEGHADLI
Text: By aligning the intergenic regions found immediately upstream of anti-CRISPR genes associated with aca2, we detected a conserved inverted repeat sequence that could act as a binding site for Aca2 proteins (FIG. 11B). […] To investigate the functions of Aca2 and Aca3, the acrlaca regions from Pectobacterium phage ZF40 and from N. meningitidis strain 2842STDY5881035 were investigated as representatives of the Aca2 and Aca3 families, respectively. The putative promoter regions of the anti-CRISPR genes in these two operons (FIGS. 11B and 11D) were cloned upstream of a promoterless lacZ reporter gene carried on a plasmid. When assayed in E. coli, both regions mediated robust transcription of the reporter as detected by measuring β-galactosidase activity in cell extracts (FIG. 7).
β-galactosidase reporter assays. β-galactosidase reporter plasmids were transformed into DH5a and PA14. Overnight cultures of transformed cells were subcultured 1:100 and grown for ˜3 hours with shaking (OD₆₀₀=0.4-0.7). β-galactosidase activity was then quantified using a method derived from Zhang and Bremer, 1995. […] The reaction was stopped with the addition of 700 μL of 1 M Na₂CO₃, A420 and A550 were measured, and Miller Units were calculated.

Aca1 [4] = target: T2, Aca1 (Pseudomonas aeruginosa phage JBD30); experiment: EMSA; no shift up to 250 nM; conditions: tags: p15TV-L expression, Ni-NTA purified; chain copies: 2 (inferred; HTH proteins stated generally dimeric)
T2 chain: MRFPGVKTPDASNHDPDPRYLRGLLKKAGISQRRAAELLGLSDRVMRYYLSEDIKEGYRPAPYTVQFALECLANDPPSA
Method: (§1) Representative non-denaturing polyacrylamide gels stained with SYBR gold are shown. Purified Aca1 was added to the DNA at concentrations of 10 nM, 50 nM, 100 nM and 250 nM. […] FIG. 3F: The anti-CRISPR promoter region from phage JBD30 either wild-type (WT), or bearing IR1 and/or IR2 mutations was cloned upstream of a promoterless lacZ gene. β-galactosidase activity was measured in PA14 (−Aca1) or in a JBD30 lysogen (+Aca1). The mean β-galactosidase activity relative to the wild-type promoter is shown, with error bars representing standard error of the mean (n≥3). FIG. 3G: Ten-fold dilutions of lysates of anti-CRISPR phage JBD30 carrying the indicated inverted repeat mutations were applied to lawns of CRISPR-Cas intact PA14 or CRISPR deleted PA14 (PA14ΔCRISPR). Representative images from three biological replicates are shown.
Aca1 acts on the acr promoter. Aca1 proteins are bioinformatically predicted to contain a helix-turn-helix (HTH) DNA-binding motif (FIG. 8A). HTH-containing proteins are generally dimeric and bind to inverted repeat sequences. We identified two such sites with very similar sequences which we refer to as IR1 and IR2, flanking the −35 region of the acrIF1 promoter (FIG. 3B). […]

Aca1 [5] = target: T2, Aca1; experiment: EMSA; two shifted bands; 10-250 nM Aca1; conditions: tags: p15TV-L expression, Ni-NTA purified; chain copies: 2 (inferred; HTH proteins stated generally dimeric)
Method: as §1, with “FIG. 3E: Electrophoretic mobility shift assays (EMSAs) were performed utilizing a fragment of dsDNA with the sequence shown, which encompasses the acr promoter region. The IR1 and IR2 mutants contained the triple and quadruple base substitutions indicated under the DNA sequence. Representative non-denaturing” for “Representative non-denaturing”
Aca1 acts on the acr promoter. Aca1 proteins are bioinformatically predicted to contain a helix-turn-helix (HTH) DNA-binding motif (FIG. 8A). HTH-containing proteins are generally dimeric and bind to inverted repeat sequences. […]

Aca1 [6] = target: T2, Aca1; experiment: EMSA; 10 mM HEPES pH 7.5, 1 mM MgCl2, 20 mM KCl, 1 mM TCEP, 6% glycerol, on ice; second shifted band at higher concentrations; conditions: tags: p15TV-L expression, Ni-NTA purified; chain copies: 2 (inferred; HTH proteins stated generally dimeric)
Text: Aca1 acts on the acr promoter. Aca1 proteins are bioinformatically predicted to contain a helix-turn-helix (HTH) DNA-binding motif (FIG. 8A). HTH-containing proteins are generally dimeric and bind to inverted repeat sequences. We identified two such sites with very similar sequences which we refer to as IR1 and IR2, flanking the −35 region of the acrIF1 promoter (FIG. 3B). To determine whether Aca1 could bind to the anti-CRISPR promoter region, purified Aca1 was mixed with a 110 bp dsDNA fragment containing the acr promoter and an electrophoretic mobility shift assay (EMSA) was performed. […] At higher Aca1 concentrations, a second shifted band was observed, consistent with the presence of two Aca1 binding sites within this fragment.
Electrophoretic mobility shift assay. Varying concentrations of purified Aca1 or Aca1 mutants were mixed with 20 ng of target DNA (gel purified PCR product or annealed oligo) in binding buffer (10 mM HEPES pH 7.5, 1 mM MgCl₂, 20 mM KCl, 1 mM TCEP, 6% v/v glycerol) and incubated on ice for 20 minutes. The DNA-protein complexes were separated by gel electrophoresis at 100 V on a 6% native 0.5× TBE polyacrylamide gel. Gels were stained at room temperature with Sybr gold (Invitrogen) and visualized according to the supplier's instructions. Bands were quantified using Image Lab 6.0 software (BioRad). […]

Aca1 (in cell) = target: T3, Aca1 (in cell) (Pseudomonas aeruginosa phage JBD30); experiment: cell_activity; lacZ reporter in P. aeruginosa JBD30 lysogen
T3 chain: T2 chain

Aca1 R44A = target: T4, Aca1 R44A (Pseudomonas aeruginosa phage JBD30, R44A); experiment: EMSA; binding completely abolished; 10-500 nM; conditions: tags: p15TV-L expression, Ni-NTA purified; chain copies: 2 (inferred)
T4 chain: T2 chain with R44A
Method: FIG. 4A: Representative electrophoretic mobility shift assays with indicated Aca1 mutants using the 110 bp upstream region from phage JBD30 as a substrate. Purified protein was added at concentrations of 10 nM, 50 nM, 100 nM, 250 nM and 500 nM. […] Non-denaturing acrylamide gels stained with SYBR gold are shown. FIG. 4B: The anti-CRISPR promoter region from phage JBD30 was cloned upstream of a promoterless lacZ gene. β-galactosidase activity was measured in a wild-type JBD30 lysogen (WT Aca1), JBD30 Aca1 mutant lysogens as indicated, and wild-type PA14 with no prophage (−). The mean from three independent experiments relative to the wild-type Aca1 JBD30 lysogen is shown, with error bars representing the standard error of the mean. FIG. 4C: Lysates of phage JBD30 (WT or Aca1R44A mutant) were spotted in 10-fold serial dilutions on bacterial lawns of wild-type P. aeruginosa PA14, a CRISPR deletion version of PA14 (PA14ΔCRISPR), or on the deletion strain bearing a plasmid that expresses Aca1. These phages are targeted by the CRISPR-Cas system in the absence of anti-CRISPR activity. Representative images from three biological replicates are shown. […] FIG. 4E: The transcript levels of the acrIF1 and aca1 genes in phages bearing anti-CRISPR promoter operator mutants and aca mutants were determined by RT-qPCR. […]

phage A006 anti-CRISPR promoter palindrome
Kd [1]: 28 nM | Kd [2]: 26 nM

AcrIIA1 (full-length, from Listeria phage ΦA006)
Nanoluciferase (NLuc) expression from the anti-CRISPR locus promoter, fold change in RLU, ΦA006acr::nluc lysogen [3]: 5 fold

B1: ZF40 acrIF8 promoter region (dsDNA)
DNA 1: AGCCTCACCTCCGGCGTTGCCGTGGCGCTGTGTGATTTACAGGAAATAAAAAGGCCACGAATGCGGCCTTAGCGATTAAAAAATATGAAATGCCTTGCTTGTTCGCGATTGCGAACATATAATTTATTCATCGGTTCGAG
DNA 2: CTCGAACCGATGAATAAATTATATGTTCGCAATCGCGAACAAGCAAGGCATTTCATATTTTTTAATCGCTAAGGCCGCATTCGTGGCCTTTTTATTTCCTGTAAATCACACAGCGCCACGGCAACGCCGGAGGTGAGGCT
activity (Aca2 ZF40): 100 fold repression

B2: IR1+IR2 mutant oligo (dsDNA)
DNA 1: ACAAGCGTCGTACTGTGCCTATTGCGAGCTAGTCCCAATGTGCCTAATCTAACG
DNA 2: CGTTAGATTAGGCACATTGGGACTAGCTCGCAATAGGCACAGTACGACGCTTGT
binding result (Aca1 [4]): no binding

B3: acrIF1 promoter IR1-IR2 oligo WT (dsDNA)
DNA 1: ACAAGCGGCACACTGTGCCTATTGCGAATTAGGCACAATGTGCCTAATCTAACG
DNA 2: CGTTAGATTAGGCACATTGTGCCTAATTCGCAATAGGCACAGTGTGCCGCTTGT
binding result (Aca1 [5]): binds

B4: JBD30 acrIF1 promoter 110 bp upstream region (dsDNA)
DNA 1: TGGCCACTTTCGGACAAGCGGCACACTGTGCCTATTGCGAATTAGGCACAATGTGCCTAATCTAACGTCATGCCAGCCACAACGGCGAGGCGCCAACAAGGATTCAAACC
DNA 2: GGTTTGAATCCTTGTTGGCGCCTCGCCGTTGTGGCTGGCATGACGTTAGATTAGGCACATTGTGCCTAATTCGCAATAGGCACAGTGTGCCGCTTGTCCGAAAGTGGCCA
Kd (Aca1 [6]): ~50 nM | activity (Aca1 (in cell)): 5 fold repression | binding result (Aca1 R44A): no binding
